Assay results as given in US20230302124.

Biological target: T1, simplified alpha-carboxysome shell of CsoS1A and CsoS4A-SII
T1 chain 1: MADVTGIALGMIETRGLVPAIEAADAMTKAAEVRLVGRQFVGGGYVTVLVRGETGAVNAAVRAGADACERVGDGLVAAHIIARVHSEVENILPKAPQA
T1 chain 2: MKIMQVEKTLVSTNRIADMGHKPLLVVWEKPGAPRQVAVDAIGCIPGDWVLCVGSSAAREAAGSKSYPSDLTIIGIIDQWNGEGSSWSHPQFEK

B1: His6-APEX2-S2CP(30) (protein)
chain: HHHHHHMGSSHHHHHHSSGMGKSYPTVSADYQDAVEKAKKKLRGFIAEKRCAPLMLRLAFHSAGTFDKGTKTGGPFGTIKHPAELAHSANNGLDIAVRLLEPLKAEFPILSYADFYQLAGVVAVEVTGGPKVPFHPGREDKPEPPPEGRLPDPTKGSDHLRDVFGKAMGLTDQDIVALSGGHTIGAAHKERSGFEGPWTSNPLIFDNSYFTELLSGEKEGLLQLPSDKALLSDPVFRPLVDKYAADEDAFFADYAEAHQKLSELGFADAGSSKPEKPGSKITGSSGNDTQGSLITYSGGARG
Average enzyme copy number per shell (T = 3) (copies per shell): 11 | Average enzyme copy number per shell (T = 4) (copies per shell): 14.6
